Results from patent publication US20240209061A1, “FUSION PROTEINS AND USES THEREOF” (Pfizer Inc., priority 2020, published 2024).
One block for each substance: values may come before it.

How the values were obtained:
[1] = tested on: peripheral blood mononuclear cells (PBMC); experiment: RESTORE cytokine release assay in absence of TCR stimulation; format: cell-based, human; design: IFNγ: unit not given beside the values
Experimental: The ability of variant CD80-Fc fusion proteins to promote cytokine release in the absence of TCR stimulation was assessed in the RESTORE (RESetting T cells to Original Reactivity) assay (Römer et al, Blood, 2011). Freshly isolated peripheral blood mononuclear cells (PBMC) from whole blood of several healthy donors were cultured for 48 hours at […] within RPMI1640 media supplemented with 10% autologous plasma, 10 mM HEPES, 1× GlutaMAX, 1× PenStrep, beta2-mercaptoethanol, NEAA and sodium pyruvate. Following the 48-hour incubation, PBMC were pelleted and resuspended at a final concentration of 10^6/ml with indicated soluble drug. Treatment was allowed for 48 hours then supernatant was harvested and assessed in IL-2 and IFNγ ELISA according to manufacturer's protocol (BioLegend).
Positive controls included CD28 superagonist anti-CD28 clone TGN1412 as IgG1 and IgG4 isotypes and anti-CD3. […] Values shown are the average of 3 technical replicates. D=Donor.

[2] = Thermal stability by Differential Scanning calorimetry (DSC); format: physicochemical
Experimental: There is a correlation between the thermal stability of a protein with the overall stability of the protein. Enhanced thermal stability often provides improved manufacturability and longer shelf life/stability. Thermal stability of variant CD80-Fc fusion proteins was assessed by Differential Scanning calorimetry (DSC). Variant CD80-Fc fusion proteins were analyzed using a MicroCal VP-DSC instrument. […] Tables 8-10 show the first thermal transition temperature (Tm1) of CD80-Fc fusion proteins and the enhanced thermal stability of variant CD80-Fc fusion proteins compared to CD80-WT-Fc fusion proteins.

[3] = tested on: Jurkat-IL-2-Luc reporter cells; experiment: Jurkat-IL-2-Luc and HCT116-CD64 reporter co-stimulation assay; format: cell-based, human; details: Table 17; 20 ng/ml CDH3×CD3 bispecific; n=2
From the text: A T cell co-stimulation assay was designed based on T Cell Activation Bioassay (IL-2) Kit from Promega (Product #J1631). The assay consisted of a genetically engineered Jurkat T cell line that expresses luciferase reporter driven by an IL-2 promoter. Co-engagement of T cell antigen receptor (TCR/CD3) and CD28 co-stimulatory receptor induces activation of T cells and downstream intracellular signaling pathways that in turn regulate the expression of luciferase reporter. As described above, HCT116 human colon cancer cell line was used for TCR engagement using the CDH3×CD3 bispecific and genetically engineered by lentiviral transduction to express human FCγRI.
A 96 well culture plate was seeded with HCT116 parental or HCT116-CD64 cells at 40,000 cells per well in 100 μL RPMI with 10% HI FBS and grown overnight at 37° C. in CO2 incubator. To each well, Jurkat reporter cells (100,000 per well) and 10 μL of the CDH3×CD3 bispecific (8 ng/ml final concentration) were added. 10 μL of serial dilutions of variant CD80-Fc fusion proteins with concentrations ranging from 0-1000 ng/ml (final concentrations per well) was added with appropriate controls. Assay plates were incubated for 6 hours at 37° C. in CO2 incubator for before harvesting culture supernatants and transferring to new plates. Following equilibration, 80 μL of BioGlo luminescence reagent (BioGlo Luciferase assay kit, Promega, G7940) was added into each well. Plates were incubated for 5 minutes before reading luminescence on the EnSight™ plate reader (PerkinElmer).
Jurkat is an immortalized human T cell line, and the Jurkat IL-2-reporter assay assesses the CD28-mediated signaling resulting in activation of the IL-2 promoter. The activity of CD80-Fc fusion proteins was measured using the co-culture HCT116-CD64-Jurkat IL-2 reporter assay, as described in Example 2, but using 20 ng/ml CDH3×CD3 bispecific.

[4] = Pharmacokinetics in huFcRn transgenic mice; details: 0.1 mg/kg IV
Experimental: PK of CD80-Fc fusion proteins was also assessed in transgenic mice expressing the human neonatal Fc receptor (huFcRn) a-chain transgene under the control of its natural human promoter. Female mice were dosed intravenously with CD80-Fc fusion proteins at 0.1 mg/kg, and blood was collected at the timepoints indicated on the graph. Levels of CD80-Fc in mouse plasma were measured as described above.

Substance: CD80-D90Q-Fc: variant CD80 ECD (D90Q) fused to human IgG1 Fc
IFNγ ([1]; Table 20, D222, 1 μg/ml): 3.3 | IFNγ ([1]; Table 20, D222, 10 μg/ml): 4.0 | IL-2 ([1]; Table 20, D222, 10 μg/ml): 9.0 | IFNγ ([1]; Table 20, D281, 1 μg/ml): 3.3 | IL-2 ([1]; Table 20, D281, 1 μg/ml): 2.3 | IFNγ ([1]; Table 20, D281, 10 μg/ml): 3.3 | IL-2 ([1]; Table 20, D281, 10 μg/ml): 2.3 | IFNγ ([1]; Table 20, D462, 1 μg/ml): 8.3 | IL-2 ([1]; Table 20, D462, 1 μg/ml): 1.7 | IFNγ ([1]; Table 20, D462, 10 μg/ml): 10.3 | IL-2 ([1]; Table 20, D462, 10 μg/ml): 1.7 | IFNγ ([1]; Table 20, D547, 1 μg/ml): 3.3 | IL-2 ([1]; Table 20, D547, 1 μg/ml): 9.0 | IFNγ ([1]; Table 20, D547, 10 μg/ml): 7.7 | IL-2 ([1]; Table 20, D547, 10 μg/ml): 3.3 | DSC Tm1 ([2]; PBS): 59.83 ± 0.08 °C

EC50 [3]: 0.047 ± 0.004 nM
Substance: CD80-K89D-D90K-T28V-T57V-Fc: non-cysteine stabilized variant CD80-Fc fusion protein (K89D, D90K, T28V, T57V)
IL-2 ([1]; Table 21, D132, 1.9 μg/ml): 0.0 | IL-2 ([1]; Table 21, D132, 5.6 μg/ml): 0.3 | IL-2 ([1]; Table 21, D132, 16.7 μg/ml): 0.7 | IL-2 ([1]; Table 21, D132, 50 μg/ml): 3.7 | IL-2 ([1]; Table 21, D149, 1.9 μg/ml): 0.0 | IL-2 ([1]; Table 21, D149, 5.6 μg/ml): 0.0 | IL-2 ([1]; Table 21, D149, 16.7 μg/ml): 3.7 | IL-2 ([1]; Table 21, D149, 50 μg/ml): 0.3 | IL-2 ([1]; Table 21, D379, 1.9 μg/ml): 2.3 | IL-2 ([1]; Table 21, D379, 5.6 μg/ml): 0.0 | IL-2 ([1]; Table 21, D379, 16.7 μg/ml): 0.0 | IL-2 ([1]; Table 21, D379, 50 μg/ml): 0.0 | IL-2 ([1]; Table 21, D399, 1.9 μg/ml): 0.0 | IL-2 ([1]; Table 21, D399, 5.6 μg/ml): 0.0 | IL-2 ([1]; Table 21, D399, 16.7 μg/ml): 0.0 | IL-2 ([1]; Table 21, D399, 50 μg/ml): 0.0 | IL-2 ([1]; Table 21, D417, 1.9 μg/ml): 0.0 | IL-2 ([1]; Table 21, D417, 5.6 μg/ml): 0.0 | IL-2 ([1]; Table 21, D417, 50 μg/ml): 0.0 | IL-2 ([1]; Table 21, D518, 1.9 μg/ml): 1.3 | IL-2 ([1]; Table 21, D518, 5.6 μg/ml): 0.3 | IL-2 ([1]; Table 21, D518, 16.7 μg/ml): 0.0 | IL-2 ([1]; Table 21, D518, 50 μg/ml): 3.0 | IFNγ ([1]; Table 22, D132, 1.9 μg/ml): 0.0 | IFNγ ([1]; Table 22, D132, 5.6 μg/ml): 0.0 | IFNγ ([1]; Table 22, D132, 16.7 μg/ml): 41.3 | IFNγ ([1]; Table 22, D132, 50 μg/ml): 0.0 | IFNγ ([1]; Table 22, D149, 1.9 μg/ml): 0.0 | IFNγ ([1]; Table 22, D149, 5.6 μg/ml): 0.0 | IFNγ ([1]; Table 22, D149, 16.7 μg/ml): 0.0 | IFNγ ([1]; Table 22, D149, 50 μg/ml): 12.3 | IFNγ ([1]; Table 22, D379, 1.9 μg/ml): 2.0 | IFNγ ([1]; Table 22, D379, 5.6 μg/ml): 0.0 | IFNγ ([1]; Table 22, D379, 50 μg/ml): 0.0 | IFNγ ([1]; Table 22, D399, 1.9 μg/ml): 0.0 | IFNγ ([1]; Table 22, D399, 5.6 μg/ml): 0.0 | IFNγ ([1]; Table 22, D399, 16.7 μg/ml): 0.0 | IFNγ ([1]; Table 22, D399, 50 μg/ml): 13.7 | IFNγ ([1]; Table 22, D417, 1.9 μg/ml): 0.0 | IFNγ ([1]; Table 22, D417, 5.6 μg/ml): 94.3 | IFNγ ([1]; Table 22, D417, 16.7 μg/ml): 0.0 | IFNγ ([1]; Table 22, D417, 50 μg/ml): 0.0 | IFNγ ([1]; Table 22, D518, 1.9 μg/ml): 0.0 | IFNγ ([1]; Table 22, D518, 5.6 μg/ml): 0.0 | IFNγ ([1]; Table 22, D518, 16.7 μg/ml): 0.0 | IFNγ ([1]; Table 22, D518, 50 μg/ml): 0.0 | AUC [4]: 147 µg·h/mL | CL [4]: 14 mL/day/kg | Vdss [4]: 0.082 L/kg | Cmax ([4]; average of 3 animals): 2300 ng/mL | DSC Tm1 ([2]; Glu pH 4.5): 65.11 ± 0.23 °C | DSC Tm1 ([2]; His pH 5.8): 68.57 ± 0.74 °C | DSC Tm1 ([2]; PBS): 63.70 ± 0.07 °C | DSC Tm1 ([2]; Tris pH 7.5): 66.94 ± 1.6 °C
